Source: patent publication EP4786496A1 (Nanjing Iaso Biotechnology Co., Ltd., dated 2026)

What was measured:
[1] = biological target: T1, His-tagged human CD3E&D (CDD-H52W1, Acro) (human, UniProt P07766 23-126; P04234 22-105); test: BLI (ForteBio Octet), His-tagged antigen on HIS1K sensor, antibody in solution
T1 construct: Bought His-tagged heterodimer; also called CD3E&D heterodimer complex

[2] = biological target: T2, His-tagged human CD3E&G (CDG-H52W6, Acro) (human, UniProt P07766 23-126; P09693 23-111); test: as above
T2 construct: Bought His-tagged heterodimer; also called CD3E&G heterodimer complex

[3] = biological target: T3, BAFF-R on the surface of BAFF-R-positive cells (K562-BAFF-R, NALM6, RS4, MEC1, JEKO1) (human, UniProt Q96RJ3 1-184); test: cell-based or functional assay
T3 sequence: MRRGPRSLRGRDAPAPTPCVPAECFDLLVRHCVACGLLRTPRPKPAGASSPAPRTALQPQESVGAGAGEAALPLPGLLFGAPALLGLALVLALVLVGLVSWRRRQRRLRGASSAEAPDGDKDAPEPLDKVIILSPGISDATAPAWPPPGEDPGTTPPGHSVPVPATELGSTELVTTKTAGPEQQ

[4] = biological target: T3, BAFF-R on the surface of …; test: cell-based or functional assay; remark: listed apart in the source
[5] = biological target: T3, BAFF-R on the surface of …; test: cell-based or functional assay; remark: listed apart in the source
[6] = biological target: T3, BAFF-R on the surface of …; test: cell-based or functional assay; remark: listed apart in the source
[7] = biological target: T3, BAFF-R on the surface of …; test: cell-based or functional assay; remark: listed apart in the source
[8] = biological target: T3, BAFF-R on the surface of …; test: cell-based or functional assay; remark: listed apart in the source
[9] = biological target: T4, His-tagged human BAFF-R antigen (BAR-H52H3, Acro) (human, UniProt Q96RJ3 7-71, limits assumed); test: BLI (ForteBio Octet), His-tagged antigen on HIS1K sensor, antibody in solution
T4 construct: Bought protein used in BLI; not shown: His tag
T4 sequence: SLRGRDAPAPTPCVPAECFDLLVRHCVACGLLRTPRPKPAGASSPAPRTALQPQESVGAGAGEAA

T2 sequence (P07766 23-126, chain 1 of 2): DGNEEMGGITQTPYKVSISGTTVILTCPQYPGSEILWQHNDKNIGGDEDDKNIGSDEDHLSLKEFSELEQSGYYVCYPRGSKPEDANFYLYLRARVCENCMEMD
T2 sequence (P09693 23-111, chain 2 of 2): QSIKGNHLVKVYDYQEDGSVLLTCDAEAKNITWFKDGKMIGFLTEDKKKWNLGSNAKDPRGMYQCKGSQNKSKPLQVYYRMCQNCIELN
T1 sequence (P07766 23-126, chain 1 of 2): as the sequence (P07766 23-126, chain 1 of 2) above
T1 sequence (P04234 22-105, chain 2 of 2): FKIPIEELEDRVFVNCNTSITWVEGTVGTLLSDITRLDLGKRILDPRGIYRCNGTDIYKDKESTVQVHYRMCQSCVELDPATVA

B1: SP34 monoclonal antibody (anti-CD3) (antibody, human IgG4 S228P, lambda, V domains shown)
VH: EVQLVESGGGLVQPKGSLKLSCAASGFTFNTYAMNWVRQAPGKGLEWVARIRSKYNNYATYYADSVKDRFTISRDDSQSILYLQMNNLKTEDTAMYYCVRHGNFGNSYVSWFAYWGQGTLVTVSS
VL: QAVVTQESALTTSPGETVTLTCRSSTGAVTTSNYANWVQEKPDHLFTGLIGGTNKRAPGVPARFSGSLIGDKAALTITGAQTEDEAIYFCALWYSNLWVFGGGTKLTVLG
notes: also called α-CD3 monoclonal antibody
Kd [1]: 6.38 nM
koff [1]: 0.00301 s⁻¹
kon [1]: 473000 M⁻¹ s⁻¹
Kd [2]: 7.87 nM
koff [2]: 0.0029 s⁻¹
kon [2]: 369000 M⁻¹ s⁻¹

B2: 0205-1, VH-Fab-Fc 1+1 α-BAFF-R VH×α-CD3 Fab bispecific antibody (bispecific antibody, human IgG4 S228P, lambda, F234A L235A)
heavy: EVQLVESGGGLVQPKGSLKLSCAASGFTFNTYAMNWVRQAPGKGLEWVARIRSKYNNYATYYADSVKDRFTISRDDSQSILYLQMNNLKTEDTAMYYCVRHGNFGNSYVSWFAYWGQGTLVTVSSASTKGPSVFPLAPCSRSTSESTAALGCLVKDYFPEPVTVSWNSGALTSGVHTFPAVLQSSGLYSLSSVVTVPSSSLGTKTYTCNVDHKPSNTKVDKRVESKYGPPCPPCPAPEAAGGPSVFLFPPKPKDTLMISRTPEVTCVVVDVSQEDPEVQFNWYVDGVEVHNAKTKPREEQFNSTYRVVSVLTVLHQDWLNGKEYKCKVSNKGLPSSIEKTISKAKGQPREPQVYTLPPCQEEMTKNQVSLWCLVKGFYPSDIAVEWESNGQPENNYKTTPPVLDSDGSFFLYSRLTVDKSRWQEGNVFSCSVMHEALHNHYTQKSLSLSLGK
light: QAVVTQESALTTSPGETVTLTCRSSTGAVTTSNYANWVQEKPDHLFTGLIGGTNKRAPGVPARFSGSLIGDKAALTITGAQTEDEAIYFCALWYSNLWVFGGGTKLTVLGQPKAAPSVTLFPPSSEELQANKATLVCLISDFYPGAVTVAWKADSSPVKAGVETTTPSKQSNNKYAASSYLSLTPEQWKSHKSYSCQVTHEGSTVEKTVAPTECS
chain: EVQLVESGGGVVQPGRSLRLTCAASGFTFSTSGMYWIRQAPGKGLEWVSYISSSSSTIYYADSVKGRFTISRDNSKNTLYLQMNSLRAEDTAVYYCVTQSCGAGKCYPGVWGQGTTVTVSSESKYGPPCPPCPAPEAAGGPSVFLFPPKPKDTLMISRTPEVTCVVVDVSQEDPEVQFNWYVDGVEVHNAKTKPREEQFNSTYRVVSVLTVLHQDWLNGKEYKCKVSNKGLPSSIEKTISKAKGQPREPQVCTLPPSQEEMTKNQVSLSCAVKGFYPSDIAVEWESNGQPENNYKTTPPVLDSDGSFFLVSRLTVDKSRWQEGNVFSCSVMHEALHNHYTQKSLSLSLGK
notes: IgG4 Fc with S228P/F234A/L235A, knobs on the CD3 side, holes on the BAFF-R side
TDCC reporter gene cell activation by K562-BAFF-R, EC50 [3]: 0.059 nM
TDCC reporter gene cell activation by K562-BAFF-R, top [3]: 9430
TDCC reporter gene cell activation by Nalm6, EC50 [4]: 3.2 nM
TDCC reporter gene cell activation by Nalm6, top [4]: 381
TDCC reporter gene cell activation by Mec-1, EC50 [5]: 7.31 nM
TDCC reporter gene cell activation by Mec-1, top [5]: 793
TDCC reporter gene cell activation by Jeko-1, EC50 [6]: 11.7 nM
TDCC reporter gene cell activation by Jeko-1, top [6]: 864
killing of Jeko-1 cells by PBMC (Donor 301C), 24hr, top (%) [7]: -22.3%
killing of Jeko-1 cells by PBMC (Donor 301C), 48hr, top (%) [7]: -12.2%
killing of Jeko-1 cells by PBMC (Donor 605C), 24hr, top (%) [8]: -12.6%
killing of Jeko-1 cells by PBMC (Donor 605C), 48hr, top (%) [8]: -12.8%
Kd [9]: 1.78 nM
koff [9]: 0.00245 s⁻¹
kon [9]: 1.38e+06 M⁻¹ s⁻¹
Kd [1]: 10.7 nM
koff [1]: 0.00811 s⁻¹
kon [1]: 759000 M⁻¹ s⁻¹
Kd [2]: 6.68 nM
koff [2]: 0.0278 s⁻¹
kon [2]: 4.16e+06 M⁻¹ s⁻¹

B3: 0205-3, VH2-Fab2-Fc 2+2 α-BAFF-R VH×α-CD3 Fab bispecific antibody (bispecific antibody)
heavy: not shown
light: QAVVTQESALTTSPGETVTLTCRSSTGAVTTSNYANWVQEKPDHLFTGLIGGTNKRAPGVPARFSGSLIGDKAALTITGAQTEDEAIYFCALWYSNLWVFGGGTKLTVLGQPKAAPSVTLFPPSSEELQANKATLVCLISDFYPGAVTVAWKADSSPVKAGVETTTPSKQSNNKYAASSYLSLTPEQWKSHKSYSCQVTHEGSTVEKTVAPTECS
notes: To be checked
TDCC reporter gene cell activation by K562-BAFF-R, EC50 [3]: 0.041 nM
TDCC reporter gene cell activation by K562-BAFF-R, top [3]: 10900
TDCC reporter gene cell activation by Nalm6, EC50 [4]: 0.021 nM
TDCC reporter gene cell activation by Nalm6, top [4]: 1870
TDCC reporter gene cell activation by Mec-1, EC50 [5]: 0.047 nM
TDCC reporter gene cell activation by Mec-1, top [5]: 1490
TDCC reporter gene cell activation by Jeko-1, EC50 [6]: 0.046 nM
TDCC reporter gene cell activation by Jeko-1, top [6]: 1230
killing of Jeko-1 cells by PBMC (Donor 301C), 24hr, EC50(pM) [7]: 18 pM
killing of Jeko-1 cells by PBMC (Donor 301C), 24hr, top (%) [7]: 28.5%
killing of Jeko-1 cells by PBMC (Donor 301C), 48hr, EC50(pM) [7]: 8.78 pM
killing of Jeko-1 cells by PBMC (Donor 301C), 48hr, top (%) [7]: 102%
killing of Jeko-1 cells by PBMC (Donor 605C), 24hr, EC50(pM) [8]: 2.48 pM
killing of Jeko-1 cells by PBMC (Donor 605C), 24hr, top (%) [8]: 6.34%
killing of Jeko-1 cells by PBMC (Donor 605C), 48hr, EC50(pM) [8]: 2.81 pM
killing of Jeko-1 cells by PBMC (Donor 605C), 48hr, top (%) [8]: 102%
Kd [9]: 1.27 nM
koff [9]: 0.00136 s⁻¹
kon [9]: 1.07e+06 M⁻¹ s⁻¹
Kd [1]: 10.6 nM
koff [1]: 0.0032 s⁻¹
kon [1]: 302000 M⁻¹ s⁻¹
Kd [2]: 9.03 nM
koff [2]: 0.00251 s⁻¹
kon [2]: 277000 M⁻¹ s⁻¹

B4: 0205-2, VH2-Fab-Fc 2+1 α-BAFF-R VH×α-CD3 Fab bispecific antibody (bispecific antibody)
heavy 1: EVQLVESGGGVVQPGRSLRLTCAASGFTFSTSGMYWIRQAPGKGLEWVSYISSSSSTIYYADSVKGRFTISRDNSKNTLYLQMNSLRAEDTAVYYCVTQSCGAGKCYPGVWGQGTTVTVSSGGGGSGGGGSEVQLVESGGGLVQPKGSLKLSCAASGFTFNTYAMNWVRQAPGKGLEWVARIRSKYNNYATYYADSVKDRFTISRDDSQSILYLQMNNLKTEDTAMYYCVRHGNFGNSYVSWFAYWGQGTLVTVSSASTKGPSVFPLAPCSRSTSESTAALGCLVKDYFPEPVTVSWNSGALTSGVHTFPAVLQSSGLYSLSSVVTVPSSSLGTKTYTCNVDHKPSNTKVDKRVESKYGPPCPPCPAPEAAGGPSVFLFPPKPKDTLMISRTPEVTCVVVDVSQEDPEVQFNWYVDGVEVHNAKTKPREEQFNSTYRVVSVLTVLHQDWLNGKEYKCKVSNKGLPSSIEKTISKAKGQPREPQVYTLPPCQEEMTKNQVSLWCLVKGFYPSDIAVEWESNGQPENNYKTTPPVLDSDGSFFLYSRLTVDKSRWQEGNVFSCSVMHEALHNHYTQKSLSLSLGK
light: QAVVTQESALTTSPGETVTLTCRSSTGAVTTSNYANWVQEKPDHLFTGLIGGTNKRAPGVPARFSGSLIGDKAALTITGAQTEDEAIYFCALWYSNLWVFGGGTKLTVLGQPKAAPSVTLFPPSSEELQANKATLVCLISDFYPGAVTVAWKADSSPVKAGVETTTPSKQSNNKYAASSYLSLTPEQWKSHKSYSCQVTHEGSTVEKTVAPTECS
heavy 2: EVQLVESGGGVVQPGRSLRLTCAASGFTFSTSGMYWIRQAPGKGLEWVSYISSSSSTIYYADSVKGRFTISRDNSKNTLYLQMNSLRAEDTAVYYCVTQSCGAGKCYPGVWGQGTTVTVSSESKYGPPCPPCPAPEAAGGPSVFLFPPKPKDTLMISRTPEVTCVVVDVSQEDPEVQFNWYVDGVEVHNAKTKPREEQFNSTYRVVSVLTVLHQDWLNGKEYKCKVSNKGLPSSIEKTISKAKGQPREPQVCTLPPSQEEMTKNQVSLSCAVKGFYPSDIAVEWESNGQPENNYKTTPPVLDSDGSFFLVSRLTVDKSRWQEGNVFSCSVMHEALHNHYTQKSLSLSLGK
notes: To be checked
TDCC reporter gene cell activation by K562-BAFF-R, EC50 [3]: 0.054 nM
TDCC reporter gene cell activation by K562-BAFF-R, top [3]: 12300
TDCC reporter gene cell activation by Nalm6, EC50 [4]: 0.068 nM
TDCC reporter gene cell activation by Nalm6, top [4]: 2430
TDCC reporter gene cell activation by Mec-1, EC50 [5]: 0.5 nM
TDCC reporter gene cell activation by Mec-1, top [5]: 2930
TDCC reporter gene cell activation by Jeko-1, EC50 [6]: 0.23 nM
TDCC reporter gene cell activation by Jeko-1, top [6]: 1650
killing of Jeko-1 cells by PBMC (Donor 301C), 24hr, EC50(pM) [7]: 52.8 pM
killing of Jeko-1 cells by PBMC (Donor 301C), 24hr, top (%) [7]: 57.8%
killing of Jeko-1 cells by PBMC (Donor 301C), 48hr, EC50(pM) [7]: 9.74 pM
killing of Jeko-1 cells by PBMC (Donor 301C), 48hr, top (%) [7]: 99.9%
killing of Jeko-1 cells by PBMC (Donor 605C), 24hr, EC50(pM) [8]: 13.1 pM
killing of Jeko-1 cells by PBMC (Donor 605C), 24hr, top (%) [8]: 39%
killing of Jeko-1 cells by PBMC (Donor 605C), 48hr, EC50(pM) [8]: 3.58 pM
killing of Jeko-1 cells by PBMC (Donor 605C), 48hr, top (%) [8]: 101%
Kd [9]: 1.12 nM
koff [9]: 0.000976 s⁻¹
kon [9]: 875000 M⁻¹ s⁻¹
Kd [1]: 10.3 nM
koff [1]: 0.00314 s⁻¹
kon [1]: 306000 M⁻¹ s⁻¹
Kd [2]: 11.1 nM
koff [2]: 0.00291 s⁻¹
kon [2]: 262000 M⁻¹ s⁻¹
